In US20150335719A1, “Intravitreal Injection of a Chimeric Phage Endolysin Ply187; Protection from Staphylococcus aureus Endophthalmitis” (priority 2014, published 2015):

Legend:
[1] = test system: S. aureus RN6390; experiment: Mouse S. aureus endophthalmitis: bacterial burden in eyes (plate count); type: in vivo, C57BL/6 mice; conditions: 24 h after treatment
Description: (§1) FIGS. 4 A, B and C depict the effect of chimeric Ply187AN-KSH3b on bacterial growth in vivo and in the vitreous humor (VH) in vitro and with increasing inoculums in vitro respectively. […] Twenty-four hours after the treatment, the eyes were enucleated, homogenized and the bacterial burden was estimated via serial dilution plating. FIG. 4B depicts a test showing the effect of the vitreous humor on Ply187AN-KSH3b antimicrobial activity where Ply187AN-KSH3b was mixed with calf vitreous humor and inoculated with 10^5 CFU of S. aureus. The survival of the bacteria was enumerated by CFU count at 2, 4 and 6 h of incubation. Statistical analysis was performed using unpaired student's t test (*, p<0.05; **, p<0.005; ***, p<0.0005). […] An increasing number of dilutions (1:10,000 to 1:10) of logarithmic phase of S. aureus (RN6390 strain) were treated with Ply187AN-KSH3b for 1 h followed by CFU enumeration on TSA plates. Statistical analysis was performed using unpaired student's t test (*, p<0.05; **, p<0.005; ***, p<0.0005).
The bacterial burden in both chimeric Ply187AN-KSH3b- and vehicle-treated eyes was estimated using a bacterial plate count method. At the desired time point, the eyes were enucleated and homogenized in sterile PBS by stainless steel beads using Tissue lyser (Qiagen, Valencia, Calif.). […] The results were expressed as the mean number of CFU/eye ±SEM.

[2] = test system: S. aureus; experiment: Antimicrobial activity in the presence of calf vitreous humor in vitro; type: cell-based, Staphylococcus aureus; conditions: calf VH, 10^5 CFU, 2, 4 and 6 h
Description: as §1
To determine the effect of Vitreous Humor (VH) on antimicrobial activity of chimeric Ply187AN-KSH3b in vitro, bacteria (10^5 CFU) were incubated with chimeric Ply187AN-KSH3b in the presence of calf VH. Following incubation at 37° C. for the desired time, bacterial growth in VH was enumerated by serial dilution plating. […]

[3] = test system: cultured microglia, Müller glia and RPE; experiment: Cytotoxicity analysis in vitro; type: cell-based; conditions: data not shown
[4] = test system: S. aureus strains/isolates RN6390, USA 300, R2932, R2952 and R3000; experiment: Turbidity reduction assay; type: cell-based, Staphylococcus aureus; conditions: at MIC, measured every 5 min up to 1 h
Method: Error bars represent SEM for three independent experiments performed in triplicates. […] Cells surviving at half (½) of the MIC value were used as an inoculum for each subsequent round of exposure. The change in susceptibility is recorded and presented as fold change resistance from day 1 to 10 of exposure and also after 5 days of growth (without any selection pressure) following the 10th day (represented as 10+5). The data represent means±SEM of two independent experiments performed in triplicate.
To verify and quantify the lytic activity against live S. aureus, we have tested Ply187AN-KSH3b in the Turbidity Reduction Assay. The turbidity assay measures the drop in optical density (OD) resulting from lysis of the target bacteria with the phage endolysin-derived protein. Turbidity reduction assays by chimeric Ply187AN-KSH3b were performed in a 96 well plate as described previously by Becker et al. (2009a, 2009b, supra). Briefly, S. aureus strains/isolates RN6390, USA 300, and clinical isolates R2932, R2952 and R3000 were grown to logarithmic phase (OD600 0.4-0.6) at 37° C. in tryptic Soy broth (TSB). The culture was harvested by centrifugation and the pellet was resuspended in assay buffer (400 mM NaCl, 20 mM Tris HCl, 1% glycerol, pH 7.5). […] The reduction in the turbidity was measured after every 5 min up to 1 h using a micro plate reader. […]

[5] = test system: retinal cells; experiment: Cytotoxicity analysis in vivo (retinal cell death); conditions: data not shown
[6] = intravitreal injection alone

B1: Ply187AN-KSH3b: staphylococcal peptidoglycan hydrolase fusion protein: endopeptidase domain of prophage endolysin Ply187 plus SH3b cell wall-binding domain of phage K endolysin LysK (SEQ ID NO:1) (protein)
chain: MALPKTGKPTAKQVVDWAINLIGSGVDVDGYYGRQCWDLPNYIFNRYWNFKTPGNARDMAWYRYPEGFKVFRNTSDFVPKPGDIAVWTGGNYNWNTWGHTGIVVGPSTKSYFYSVDQNWNNSNSYVGSPAAKIKHSYFGVTHFVRPAYKAEPKPTPPLESTPATRPVTGSWKKNQYGTWYKPENATFVNGNQPIVTRIGSPFLNAPVGGNLPAGATIVYDEVCIQAGHIWIGYNAYNGNRVYCPVRTCQGVPPNQIPGVAWGVFKVEHHHHHH
modifications: Chemically Synthesized Fusion Protein
[1]; treatment 6 h post infection
  bacterial burden recovered: 3.6×10^3 CFU/eye
[1]; treatment 12 h post infection
  bacterial burden recovered: 2.9×10^4 CFU/eye
[2]
  killing activity in presence of vitreous humor (viable count): does not adversely affect the killing activity
[3]
  retinal cell death in vitro: does not cause retinal cell death
[4]
  reduction in the turbidity of suspension culture: time-dependent reduction in the turbidity
[5]
  retinal cell death in vivo: does not cause retinal cell death
[6]
  inflammatory response in the eye: does not evoke an inflammatory response
